Data published in the nanobody polyreactivity screen of Harvey et al. (2022).

Test: yeast display, Sf9 membrane polyspecificity reagent, FACS + sequencing; frameworks hold sequencing errors
Summary of the method: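 Sorting gates, low and high (top ~1%), were placed on anti-HA fluorescence to track expression and on streptavidin fluorescence to track reagent binding. A clone's polyreactivity label is taken from the gate it came out of. The reagent was 10% biotinylated, detergent-solubilized Sf9 membrane, applied for 1 hour at 4 °C to galactose-induced yeast display cells.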

## QVELVESGGGLVQAGGSLRLSCAASGYIFNYYAMGWYRQAPGKERELVAAISTSGGSTYYADSVKGRFTISRDNAKNTVYLQMNSLKPEDTAVYYCAAVDYKANGYGYWGQGTQVTVSS
  polyreactivity (PSR sort gate): high polyreactivity

## QVHFVESGGGLVQAGGSLSLSCAASGLTFSYYAMGWYRQAPGKERELVARISNSGGCTYYADSVKGRFTISRDNAKITVYLQMNSLKPEDTAVYYCAALHTSLHRNKYEYWGQGTQVTVSS
  polyreactivity (PSR sort gate): high polyreactivity

## QVHHLESRGGLVQEGGSLPISCGASGSTFLRYALGWYRQAPGKVRELVADITTSGGITYYADSVKGRFTISRDNAKYTVYLQLNSLKPEDTAVYDCDYWGQGTQVTVSS
  polyreactivity (PSR sort gate): low polyreactivity

## QVHHVESGGGLVQAGGSLRLSCAASGFIFTYNAMGWYRQAPGKERELVAAIRSGTNTSYADSVKGRFTISRDNAKNTVYLQMNSLKPEDTAVYYCNREVPEYQGFITPDGYWGQGTQVTVSS
  polyreactivity (PSR sort gate): low polyreactivity

## QVHHVESGGGLVQAGGSLRLSCAASGGTFRVYTMGWYRQAPAKVRELVAAITRNGGSTYYADSVKGRFTISRDNAKNSVYVQMNSLKPDDTAVYYCAARGGVPYSHAYDYWGQGTQVTVSS
  polyreactivity (PSR sort gate): low polyreactivity

## QVHHVESGGGLVQAGGSLRLSCAASGRIFYPYAMGWYRQAPGKERELVASITSGGGTYYADSVKGRFTISRDNAKNTVYLQMNSLKPEDTAVYYCAAKYYTSWIRYDYWGQGTQVTVSS
  polyreactivity (PSR sort gate): low polyreactivity

## QVHHVESGGGLVQAGGSRRLSSAASRIIIDTNAMGWSSQAPGKERELVASISTRGGSTYYADSVKGRFTISRDNAKNTVYLQMISLKPANTPVYYCNAVQTYSGGYEYWGQGTQVTVSS
  polyreactivity (PSR sort gate): high polyreactivity

## QVHIVESGGGLVQAGGSLRISCAASGRILLLYDMGWYRQAPGKERELVAAINWDGGYSYADSVKGRFTISRDNANNTVFLQMNSLKPADTAVYYCAKDDIWEHYDYWGQGTQVTVSS
  polyreactivity (PSR sort gate): low polyreactivity

## QVHIVESGGGLVQAGGSLRLSCGASGFTFIYAMGWYRQAHAKEREMVAAITRSGGSTYYADSVKGRFTISRDNAKNTVYSQMNILKPEDTAFYYCAARLRYQGRGYRYWGQGTQVTVSS
  polyreactivity (PSR sort gate): high polyreactivity

## QVHLEESCGGLVQAGGTLRLSCAASGSTFPRYVMGWYRQAPGKERELVAAITSGGSTYYADSVKGRFTISRDNAKNTVYLQMNRLKPEDTAVFYCAAGSYRVVWYDSWGQGTLVTVSS
  polyreactivity (PSR sort gate): high polyreactivity

## QVHLEESGGGIVQAGGSLRLSCAASGFTFPVHAMGWYRQAPGKERQLVAAIRWIGGDTYYADSVKGRFTISRDNAKNTVYLQMNSLKPEDTAVYYCAAEDTDDYSIWFEYWGQGTQVTVSS
  polyreactivity (PSR sort gate): high polyreactivity

## QVHLEHSAGGLVQAGGILRLSSPASGSIVVTNAMGWYRQAPGKERELVAAISNSGSSTYYADSVKGRFTISRDNSKNTVYLQMNSLKPEDTAVYYCAADEPTWDWSYPYGYWGQGTQVTVSS
  polyreactivity (PSR sort gate): high polyreactivity

## QVHLLERGGGLVQAGGSLRLSCMASGSILGDSMSWYRQAPGKEHELVATIYDGGITYYADSMKGRFTISRDNAKNSVYLQMNSLRPEDTAVYYCGASFEGYSYHVYCGQGTQVTVSS
  polyreactivity (PSR sort gate): low polyreactivity

## QVHLLESGGGLLQAGGSLLISCAAAGRTFGQNAMGWSRQAPGKARELVASIRSGGITDYADSVKGRYTISRDNAKYSVYLQMNSLKPEDTAVYYCNAEGVWWSTRYDSWGQGTQVTVSS
  polyreactivity (PSR sort gate): low polyreactivity

## QVHLLESGGGLVKAGGILRLSCAASGYIFPRYAMGSYRQSPGKDRELVAAITSGGSTYYADSVKGRFTISRDNAKNTVYLQMNSLKPEDTAVYYCIDPYHGREYEWGQGTQVTVSS
  polyreactivity (PSR sort gate): high polyreactivity

## QVHLQEIGGGLVQAGGSLRQSCAASGTISDSGLMGWYRQAPGKERELVAGISSGGITNYADSVKGRFTISRDNAKNTVYLQMNSLKPEDTAVYWGQGTQVTVSS
  polyreactivity (PSR sort gate): low polyreactivity

## QVHLQERGGGLLQACGSQRLSCAASGSISEVQYMGWYRRAPGKEREFVAGIAPGATTYYADSVKCRFTISRDNAKNTVFLQMNSLNPEYTDVDYFEDRYVTETDHDYWGQGTQVTVCS
  polyreactivity (PSR sort gate): low polyreactivity

## QVHLQESGGGLVQAGGSLRLSCAASGTIFASQHMGWYRQAPGKERELVASIAKGGTTYYADSVKGRFTISRGNAKNTEYLQMNRLKPEDTAVYYCAARGWGYRRTYVYAWYDYWGQGTQVTVSS
  polyreactivity (PSR sort gate): high polyreactivity
